Reference: patent US20060084596A1 (UNIVERSITY OF SOUTH FLORIDA, published 2006)
Several values for one entry are separate records, joined by “and”; a condition that tells them apart may be missing. Identical values can stand only once. Positions of bridges follow the written chain, without caps; N, C: chain ends. Non-standard residues stand in square brackets, D forms with d. No end group written: not given here. d2Nal = N[C@H](Cc1ccc2ccccc2c1)C(=O)O; dAbu = CC[C@@H](N)C(=O)O

B1: GFB-101 (designed binder)
peptide: GFGD
modifications: linker N-C via 3‑aminomethyl‑5‑aminobenzamide; also: four loops on O4-Calix calix[4]arene scaffold
B2: GFB-106 (designed binder)
peptide: GDDD
modifications: linker N-C via 3‑aminomethyl‑5‑aminobenzamide; also: four loops on But-Calix calix[4]arene scaffold
B3: GFB-107 (designed binder)
peptide: GDGD
modifications: linker N-C via 3‑aminomethyl‑5‑aminobenzamide; also: four loops on But-Calix calix[4]arene scaffold
B4: GFB-102 (designed binder)
peptide: GDFD
modifications: linker N-C via 3‑aminomethyl‑5‑aminobenzamide; also: four loops on O4-Calix calix[4]arene scaffold
B5: GFB-137 (designed binder)
peptide 1: GDGY
peptide 2: GDDG
modifications: not fully specified; also: linker to a chain's N/C-terminus via 3-aminomethyl-5-aminobenzamide
B6: GFB-118 (designed binder)
peptide: [d2Nal]DGD
modifications: linker N-C via 3‑aminomethyl‑5‑aminobenzamide; also: four loops joined to But-Calix calix[4]arene scaffold
B7: GFB-132 (designed binder)
peptide 1: GDGY
peptide 2: GDDG
modifications: also: 3 GDGY loops and 1 GDDG loop on But-Calix scaffold, linker to a chain's N/C-terminus via 3-aminomethyl-5-aminobenzamide
B8: GFB-109 (designed binder)
peptide: GDLD
modifications: linker N-C via 3‑aminomethyl‑5‑aminobenzamide; also: four loops on But-Calix calix[4]arene scaffold
B9: GFB-135 (designed binder)
peptide 1: GDGY
peptide 2: GDDD
modifications: also: 3 GDGY loops and 1 GDDD loop on But-Calix scaffold, linker to a chain's N/C-terminus via 3-aminomethyl-5-aminobenzamide
B10: GFB-134 (designed binder)
peptide 1: GDGY
peptide 2: GDDY
modifications: also: 3 GDGY loops and 1 GDDY loop on But-Calix scaffold, linker to a chain's N/C-terminus via 3-aminomethyl-5-aminobenzamide
B11: GFB-133 (designed binder)
peptide: GDGY
modifications: linker N-C via 3‑aminomethyl‑5‑aminobenzamide; also: 3 GDGY loops on But-Calix scaffold, CO2H at fourth position
B12: GFB-122 (designed binder)
peptide: GDDY
modifications: linker N-C via 3‑aminomethyl‑5‑aminobenzamide; also: four loops on But-Calix calix[4]arene scaffold
B13: GFB-110 (designed binder)
peptide: GDAD
modifications: linker N-C via 3‑aminomethyl‑5‑aminobenzamide; also: four loops on But-Calix calix[4]arene scaffold
B14: GFB-117 (designed binder)
peptide: GDND
modifications: linker N-C via 3‑aminomethyl‑5‑aminobenzamide; also: four loops on But-Calix scaffold
B15: GFB-136 (designed binder)
peptide 1: GDDD
peptide 2: GDGY
modifications: also: 3 GDDD loops and 1 GDGY loop on But-Calix scaffold, linker to a chain's N/C-terminus via 3-aminomethyl-5-aminobenzamide
B16: GFB-121 (designed binder)
peptide: [dAbu]DGD
modifications: linker N-C via 3‑aminomethyl‑5‑aminobenzamide; also: four loops joined to But-Calix calix[4]arene scaffold
B17: GFB-119 (designed binder)
peptide: PDGD
modifications: linker N-C via 3‑aminomethyl‑5‑aminobenzamide; also: four loops on But-Calix scaffold
B18: GFB-104 (designed binder)
peptide: GDGD
modifications: linker N-C via 3‑aminomethyl‑5‑aminobenzamide; also: four loops on O3-Calix calix[4]arene scaffold

The binders below were run against vascular endothelial growth factor (VEGF) (UniProt P15692-4 27-191, limits assumed) (assay: cell-based or functional assay).
vascular endothelial growth factor (VEGF), sequence (P15692 other isoform, or with tags, fused parts or gaps limits assumed): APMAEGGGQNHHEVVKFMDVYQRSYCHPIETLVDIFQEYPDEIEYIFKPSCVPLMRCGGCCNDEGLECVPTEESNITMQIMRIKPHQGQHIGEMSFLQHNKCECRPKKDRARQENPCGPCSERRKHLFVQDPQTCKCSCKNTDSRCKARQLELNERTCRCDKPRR

How did the “IC50, Flk-1-Y-P” value turn out when B1 was run?
Its value is > 100 µM.

And the “IC50, p42” value?
Its value is > 100 µM.

What about the “IC50, p44” value of the same binder?
The value was > 100 µM.

Which “IC50, Flk-1-Y-P” value does the source give for B2 here?
Its value is < 10 µM.

And the “IC50, p42” value?
The value was < 10 µM.

And the “IC50, p44” value?
Its value is < 10 µM.

What does the source list for B3?
IC50, Flk-1-Y-P: < 10 µM; IC50, p42: 100 µM; IC50, p44: 100 µM

For B4, which “IC50, p42” value is on record?
The value was > 100 µM.

What about the “IC50, p44” value of the same binder?
The value was > 100 µM.

Each binder was assayed against acidic fibroblast growth factor (aFGF) (UniProt P05230 16-155, limits assumed) (assay: cell-based or functional assay).
acidic fibroblast growth factor (aFGF), sequence (P05230 16-155 limits assumed): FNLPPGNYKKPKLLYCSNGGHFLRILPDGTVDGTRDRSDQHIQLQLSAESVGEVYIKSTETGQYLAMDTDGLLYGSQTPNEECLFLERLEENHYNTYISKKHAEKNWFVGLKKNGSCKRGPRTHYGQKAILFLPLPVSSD

B5 was tested. Which “(IC50) Inhibition, p44” value did it give?
The value was 19.9 µM per head; likely %.

For GDDY (designed binder, linker N-C via 3‑aminomethyl‑5‑aminobenzamide; also: loops on DPM-2 scaffold) [GFB-130], which “(IC50) Inhibition, p42” value is on record?
Its value is 78.9 µM per head; likely %.

What about the “(IC50) Inhibition, p44” value of the same binder?
Its value is 78.9 µM per head; likely %.

B6 was tested. Which “(IC50) Inhibition, p42” value did it give?
Its value is 20.6 µM per head; likely %.

What about the “(IC50) Inhibition, p44” value of the same binder?
The value was 30.5 µM per head; likely %.

With B7 as the binder, how does the “(IC50) Inhibition, p44” value read?
Its value is 50.2 µM per head; likely %.

For B8, which “(IC50) Inhibition, p42” value is on record?
Its value is 68.3 µM per head; likely %.

What about the “(IC50) Inhibition, p44” value of the same binder?
The value was 79.7 µM per head; likely %.

What does the source list for B9?
(IC50) Inhibition, p42: 44.1 µM per head; likely %; (IC50) Inhibition, p44: 53.9 µM per head; likely %

Which results are given for B10?
(IC50) Inhibition, p42: 54.8 µM per head; likely %; (IC50) Inhibition, p44: 64.1 µM per head; likely %

B11 was tested. Which “(IC50) Inhibition, p44” value did it give?
The value was 101 µM per head; likely %.

With B12 as the binder, how does the “(IC50) Inhibition, p42” value read?
The value was 57.3 µM per head; likely %.

And the “(IC50) Inhibition, p44” value?
The value was 71.6 µM per head; likely %.

How did the “(IC50) Inhibition, p42” value turn out when B13 was run?
The value was 76.1 µM per head; likely % and 93 µM per head; likely %.

And the “(IC50) Inhibition, p44” value?
The value was 85.2 µM per head; likely % and 98.9 µM per head; likely %.

Which results are given for B14?
(IC50) Inhibition, p42: 63.4 µM per head; likely % and 67.6 µM per head; likely %; (IC50) Inhibition, p44: 80.8 µM per head; likely % and 84.3 µM per head; likely %

With B15 as the binder, how does the “(IC50) Inhibition, p42” value read?
The value was 73.1 µM per head; likely %.

And the “(IC50) Inhibition, p44” value?
The value was 84.5 µM per head; likely %.

With B16 as the binder, how does the “(IC50) Inhibition, p42” value read?
The value was 8.7 µM per head; likely %.

What about the “(IC50) Inhibition, p44” value of the same binder?
The value was 8.9 µM per head; likely %.

Which results are given for B17?
(IC50) Inhibition, p42: 62.6 µM per head; likely % and 72.1 µM per head; likely % and 47.8 µM per head; likely %; (IC50) Inhibition, p42 (mean): 60.8 µM per head; likely %; (IC50) Inhibition, p44: 78.9 µM per head; likely % and 81.7 µM per head; likely % and 58.1 µM per head; likely %; (IC50) Inhibition, p44 (mean): 72.9 µM per head; likely %

Which “(IC50) Inhibition, p44” value does the source give for GDGY (designed binder, linker N-C via 3‑aminomethyl‑5‑aminobenzamide; also: loops on DPM-2 scaffold) [GFB-128] here?
Its value is 43.3 µM per head; likely %.

What follows are binders tested against platelet derived growth factor PDGF-BB (UniProt P01127 82-190) (assay: cell-based or functional assay).
platelet derived growth factor PDGF-BB, sequence (P01127 82-190 limits assumed): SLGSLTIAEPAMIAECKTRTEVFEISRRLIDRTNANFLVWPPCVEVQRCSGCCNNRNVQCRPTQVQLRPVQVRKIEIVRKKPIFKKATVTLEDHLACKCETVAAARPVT

B5 was tested. Which “IC50, PDGFR-Y-P” value did it give?
The value was 0.4 µM.

And the “IC50, p42/Erk2: p42” value?
Its value is 2.9 µM.

With B6 as the binder, how does the “IC50, PDGFR-Y-P” value read?
Its value is 0.7 µM.

What about the “IC50, p42/Erk2” value of the same binder?
Its value is 1.2 µM.

With B1 as the binder, how does the “IC50, PDGFR-Y-P” value read?
The value was > 500 µM.

What about the “IC50, p42/Erk2” value of the same binder?
Its value is > 500 µM.

Which results are given for B2?
IC50, PDGFR-Y-P: 8 µM; IC50, p42/Erk2: 33 µM

What does the source list for B7?
IC50, PDGFR-Y-P: 0.4 µM; IC50, p42/Erk2: p42: 2.9 µM

With B8 as the binder, how does the “IC50, PDGFR-Y-P” value read?
The value was 7.5 µM.

And the “IC50, p42/Erk2” value?
The value was 15 µM.

Which results are given for B9?
IC50, PDGFR-Y-P: 1.9 µM; IC50, p42/Erk2: p42: 3.2 µM; IC50, p42/Erk2: p44: 24 µM

Which “IC50, PDGFR-Y-P” value does the source give for B10 here?
The value was 1.9 µM.

And the “IC50, p42/Erk2: p42” value?
The value was 2.5 µM.

What about the “IC50, p42/Erk2: p44” value of the same binder?
Its value is 2.6 µM.

For B11, which “IC50, p42/Erk2: p42” value is on record?
Its value is 3.2 µM.

What about the “IC50, p42/Erk2: p44” value of the same binder?
Its value is 3 µM.

B12 was tested. Which “IC50, PDGFR-Y-P” value did it give?
The value was 1.7 µM.

What about the “IC50, p42/Erk2” value of the same binder?
Its value is 19 µM.

How did the “IC50, PDGFR-Y-P” value turn out when B13 was run?
Its value is 1.7 µM.

And the “IC50, p42/Erk2” value?
The value was 7 µM.

B14 was tested. Which “IC50, PDGFR-Y-P” value did it give?
The value was 5.8 µM.

And the “IC50, p42/Erk2” value?
The value was 36 µM.

B15 was tested. Which “IC50, PDGFR-Y-P” value did it give?
Its value is 3 µM.

And the “IC50, p42/Erk2: p42” value?
The value was 25 µM.

What about the “IC50, p42/Erk2: p44” value of the same binder?
The value was 24 µM.

How did the “IC50, PDGFR-Y-P” value turn out when B16 was run?
Its value is 5.6 µM.

What about the “IC50, p42/Erk2” value of the same binder?
The value was 8.5 µM.

B17 was tested. Which “IC50, PDGFR-Y-P” value did it give?
Its value is 20 µM.

And the “IC50, p42/Erk2” value?
Its value is 32 µM.

With GDGY (designed binder, linker N-C via 3‑aminomethyl‑5‑aminobenzamide; also: loops on DPM-2 scaffold) [GFB-128] as the binder, how does the “IC50, p42/Erk2” value read?
The value was > 50 µM.

Each binder was assayed against insulin-like growth factor-1 (IGF-1) (UniProt P05019 49-118) (assay: cell-based or functional assay).
insulin-like growth factor-1 (IGF-1), sequence (P05019 49-118 limits assumed): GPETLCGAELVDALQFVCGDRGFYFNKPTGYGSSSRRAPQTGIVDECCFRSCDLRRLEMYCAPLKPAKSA

B6 was tested. Which “% Inhibition at 100 µM, IGF1R-Y-P” value did it give?
Its value is 1.5%.

What about the “% Inhibition at 100 µM, p42” value of the same binder?
Its value is 16.4%.

What about the “% Inhibition at 100 µM, p44” value of the same binder?
Its value is 55.2%.

For B8, which “% Inhibition at 100 µM, p42” value is on record?
Its value is 68.3%.

What about the “% Inhibition at 100 µM, p44” value of the same binder?
Its value is 79.7%.

Which results are given for B9?
% Inhibition at 100 µM, IGF1R-Y-P: 16.2%; % Inhibition at 100 µM, p42: 0.8%; % Inhibition at 100 µM, p44: 46.1%

Which results are given for B10?
% Inhibition at 100 µM, IGF1R-Y-P: 16.8%; % Inhibition at 100 µM, p42: 4.9%; % Inhibition at 100 µM, p44: 53.5%

B14 was tested. Which “% Inhibition at 100 µM, IGF1R-Y-P” value did it give?
The value was 4.9%.

What about the “% Inhibition at 100 µM, p42” value of the same binder?
Its value is 17.1%.

What about the “% Inhibition at 100 µM, p44” value of the same binder?
The value was 61.5%.

For B15, which “% Inhibition at 100 µM, IGF1R-Y-P” value is on record?
The value was 40.6%.

What about the “% Inhibition at 100 µM, p42” value of the same binder?
The value was 15%.

What about the “% Inhibition at 100 µM, p44” value of the same binder?
Its value is 59.5%.

Which results are given for GDDD (designed binder, linker N-C via 3‑aminomethyl‑5‑aminobenzamide; also: loops on DPM-2 scaffold) [GFB-129]?
% Inhibition at 100 µM, IGF1R-Y-P: 3.4%; % Inhibition at 100 µM, p42: 2.8%; % Inhibition at 100 µM, p44: 33.4%

How did the “% Inhibition at 100 µM, IGF1R-Y-P” value turn out when B16 was run?
Its value is 33.8%.

And the “% Inhibition at 100 µM, p42” value?
Its value is 28.3%.

What about the “% Inhibition at 100 µM, p44” value of the same binder?
The value was 62.1%.

With B18 as the binder, how does the “% Inhibition at 100 µM, IGF1R-Y-P” value read?
The value was -28.4%.

For B17, which “% Inhibition at 100 µM, IGF1R-Y-P” value is on record?
Its value is 16.7%.

What about the “% Inhibition at 100 µM, p42” value of the same binder?
Its value is 29.7%.

And the “% Inhibition at 100 µM, p44” value?
Its value is 66.2%.

With GDGY (designed binder, linker N-C via 3‑aminomethyl‑5‑aminobenzamide; also: loops on DPM-2 scaffold) [GFB-128] as the binder, how does the “% Inhibition at 100 µM, IGF1R-Y-P” value read?
The value was -12%.

What about the “% Inhibition at 100 µM, p42” value of the same binder?
Its value is -6.1%.

What about the “% Inhibition at 100 µM, p44” value of the same binder?
The value was 38.2%.
